Laboratory results reported in patent publication US9657092B2, “S100A4 antibodies and therapeutic uses thereof” (LYKERA BIOMED SA, priority 2010, dated 2017).

Columns and labels:
Human S100A4 [1] = target: T1, Human S100A4 (Homo sapiens, UniProt P26447); assay: ELISA specificity (reaction pattern of mAb); format: binding; set-up: the final full-length recombinant S100A4 protein has an additional Gly-Ser-His at the N-terminus; His tag (pET28a) (N); made in house; host or cells: E. coli Tuner (DE3); key to Reaction Pattern of mAb in ELISA, Human S100A4: ++++ positive reaction; − no reaction
Target sequence in this assay (P26447 with tags, fused parts or gaps): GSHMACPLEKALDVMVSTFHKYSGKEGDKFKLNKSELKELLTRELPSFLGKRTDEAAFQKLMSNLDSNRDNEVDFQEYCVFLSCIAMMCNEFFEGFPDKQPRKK

Mouse S100A4 = target: T2, Mouse S100A4 (Mus musculus, UniProt P07091); assay: ELISA specificity (reaction pattern of mAb); format: binding; set-up: key to Reaction Pattern of mAb in ELISA, Mouse S100A4: ++++ positive reaction; − no reaction
T2 construct: made in house

[2] = system: IL-8 release induced by S100A4 in THP-1 monocytes; assay: IL-8 release in THP-1 monocytes (sandwich ELISA); format: cell-based, human
Protocol: Cells of the human monocytic leukemia cell line THP-1 (ATCC) were grown in RPMI 1640 culture medium supplemented with 10% FCS and 1% penicillin/streptomycin, at 37° C. in 5% CO2 in a humidified incubator. Cells were plated at 5.0×10^5 cells/well. […] Anti-mouse IgG (Fc specific) was always added in all the cases for preventing the Fc receptor response. Cell culture supernatants were collected after 24 h and stored at −20° C. The levels of IL-8 were analyzed by sandwich ELISA.

[3] = system: HUVECs migration induced by VEGF plus S100A4; assay: HUVECs Transwell migration assay; format: cell-based, human
Protocol: Twenty-four-well cell culture plates with light-opaque PET membrane filter inserts with 8 μm-pores (Transwell HTS FluoroBlok™ Multiwell Insert Systems from Becton Dickinson) were used to test the migratory activity. The upper and lower surfaces of the Transwell membranes were coated for 2 hours at 37° C. with 15 μg/mL of Type I Collagen (Upstate). Endothelial cells (5×10^4 HUVEC's) suspended in 100 μl of EBM in the absence of serum or other supplements were seeded, after the collagen coating, onto the upper side of each Transwell chamber and incubated for 4 hours at 37° C. Then, S100A4 (1 μM), alone or in combination with VEGF (3 ng/mL) in EBM were added to the lower compartment of the 24-well plates to test their chemotactic capacity. […] Other monoclonal antibody anti-S100A4 called 5H4 (Leitat Biomed Division) was used to compare the activity. After 24 hours at 37° C., cells that had migrated to the lower side of the transwell were incubated with 5 μM Calcein-AM (Calbiochem) for 25-30 minutes at 37° C. Migrated cells were counted under a light microscope at a magnification of ×10. Comparisons between groups were made using the two-tailed nonparametric Mann Whitney U test. Differences for which P value was less than 0.05 were considered statistically significant.

murine S100A4 = target: T3, murine S100A4 (Mus musculus, UniProt P07091); assay: Western-blot of NIH-3T3 mouse fibroblast extract; format: binding
T3 construct: total extracts from tumor cell lines of different origins and the mouse embryonic fibroblast cell line NIH3T3; endogenous in cells; host or cells: NIH-3T3 mouse fibroblasts
Protocol: (§1) Cell and tumors samples were rinsed twice with PBS and immediately lysed with ice cold Cell Lysis Buffer (150 mM NaCl, 1% IGEPAL CA630, 5 mM EDTA, 100 μg/mL PMSF, 1 mM Na3VO4, 1 mM NaF and 50 mM Tris pH 7.4). Lysates were cleared by centrifugation and the protein concentration was quantified with the Bradford reagent (Bio-Rad). Total extracts (50 μg) were resolved in a 12% SDS-polyacrilamide gel (PAGE) electrophoresis under reduced conditions and transferred to BioTrace™ PVDF membranes (PALL corporation). Membranes were blocked for 1 hour in TBS plus 0.1% Tween-20 with 5% skimmed dried milk, incubated overnight with the relevant primary antibody and then with the secondary antibodies for 1 hour in blocking buffer, washing three times for 10 min in TBS plus 0.1% Tween-20 after each incubation. Signals were developed using the ECL™ Western Blotting Detection Reagents (Amersham) and exposed to Hyperfilm™ ECL (Amersham).

Human S100A4 [4] = target: T1, Human S100A4; assay: Western-blot of cell and tumor extracts; format: binding; set-up: Levels of S100A4 expression in total extracts from tumor cell lines of different origins; endogenous in cells; host or cells: human tumour cell lines (MiaPACA-2, Panc1, BxPC3, Colo 205, MDA-MB-231 and others) and xenograft tumours from HCT116, MiaPACA-2, BxPC3; conditions: denaturalized protein, reduced conditions
Protocol: as §1
Target sequence in this assay (P26447 whole entry): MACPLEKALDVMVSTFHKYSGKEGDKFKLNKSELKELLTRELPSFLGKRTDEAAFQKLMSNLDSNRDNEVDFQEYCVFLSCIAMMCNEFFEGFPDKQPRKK

[5] = VEGF 3 ng/mL plus S100A4 1 μM, 24 h

T2 sequence (P07091 whole entry, one chain of several): as the sequence (P26447 whole entry) above, with C3R, K7E, M12I, S32T, L58V, F93C, Q97E counted along it
T3 sequence (P07091 whole entry, one chain of several): as the sequence (P26447 whole entry) above, with C3R, K7E, M12I, S32T, L58V, F93C, Q97E counted along it

B1: 5C3: mouse monoclonal anti-S100A4 antibody, IgG1, from hybridoma ECACC 10022401; VL SEQ ID NO: 1, VH SEQ ID NO: 2 (antibody, V domains shown)
VH: EAQLQQSGAELVKPGASVKLSCTASGFNIQETYMHWVKQRPEQGLEWIGRIDPANGNTKDDPKFQGKASITVDTSSNTAYLQLSSLTSEDTAVYYCASSYAMDYWGQGTSVTVSS
VL: DVLMTQTPLSLPVSLGDQASISCRSSQSIVHSNGNTYLEWYLQKTGQSPELLIYKVSNRLSGVPDRFSGSGSGTDFTLKISRVEAEDLGVYYCFQGSHVPFTFGSGTKLEIK
modifications: VH region of the 5C3 monoclonal antibody; VL region of the 5C3 monoclonal antibody
- Reaction Pattern of mAb in ELISA, Human S100A4 (Human S100A4 [1]): ++++
- reaction with human S100A4 by ELISA (Human S100A4 [1]; purified protein): reacted
- Reaction Pattern of mAb in ELISA, Mouse S100A4 (Mouse S100A4): ++++
- reaction with murine S100A4 by ELISA (Mouse S100A4; purified protein): reacted
- IL-8 release induced by S100A4 ([2]; S100A4 3 μM, 24 h): can be blocked
- IL-8 levels in absence of S100A4 ([2]; absence of S100A4, data not shown): no effect
- concentration that abolished the synergistic effect of VEGF plus S100A4 on HUVECs migration [3, 5]: 250 nM
- neutralizing activity on HUVECs migration induced by S100A4 [3, 5]: in vitro neutralizing activity
- migration induced by VEGF alone ([3]; VEGF alone): did not affect
- reaction with murine S100A4 in Western-blot (murine S100A4): also with murine S100A4
- reaction with human S100A4 in Western-blot (Human S100A4 [4]): react with human S100A4
